Data set [1] deals with mouse aryl hydrocarbon receptor nuclear transport protein (ARNT) (mouse) (UniProt P53762).
In data set [2] the test system is EPAS1/ARNT heterodimer (cotransfected) (Homo sapiens (EPAS1) / Mus musculus? (ARNT)). Description: cell_activity. The following applies: ARNT-deficient c4 cells; EPAS1 alone 1.8-fold; Hepa1c1c7 with EPAS1 9-fold.
A further data set has as its target EPAS1 (Homo sapiens) (UniProt Q99814). In words: cell_activity. The following applies: 293 cells, endogenous ARNT.
Data set [3] concerns the target HIF-1alpha (Homo sapiens) (UniProt Q16665). Description: cell_activity. The following applies: 293 cells, larger amounts of plasmid.

The text below walks through data of patent US5695963.

Chain of EPAS1 (Homo sapiens) (Q99814 whole entry A60E): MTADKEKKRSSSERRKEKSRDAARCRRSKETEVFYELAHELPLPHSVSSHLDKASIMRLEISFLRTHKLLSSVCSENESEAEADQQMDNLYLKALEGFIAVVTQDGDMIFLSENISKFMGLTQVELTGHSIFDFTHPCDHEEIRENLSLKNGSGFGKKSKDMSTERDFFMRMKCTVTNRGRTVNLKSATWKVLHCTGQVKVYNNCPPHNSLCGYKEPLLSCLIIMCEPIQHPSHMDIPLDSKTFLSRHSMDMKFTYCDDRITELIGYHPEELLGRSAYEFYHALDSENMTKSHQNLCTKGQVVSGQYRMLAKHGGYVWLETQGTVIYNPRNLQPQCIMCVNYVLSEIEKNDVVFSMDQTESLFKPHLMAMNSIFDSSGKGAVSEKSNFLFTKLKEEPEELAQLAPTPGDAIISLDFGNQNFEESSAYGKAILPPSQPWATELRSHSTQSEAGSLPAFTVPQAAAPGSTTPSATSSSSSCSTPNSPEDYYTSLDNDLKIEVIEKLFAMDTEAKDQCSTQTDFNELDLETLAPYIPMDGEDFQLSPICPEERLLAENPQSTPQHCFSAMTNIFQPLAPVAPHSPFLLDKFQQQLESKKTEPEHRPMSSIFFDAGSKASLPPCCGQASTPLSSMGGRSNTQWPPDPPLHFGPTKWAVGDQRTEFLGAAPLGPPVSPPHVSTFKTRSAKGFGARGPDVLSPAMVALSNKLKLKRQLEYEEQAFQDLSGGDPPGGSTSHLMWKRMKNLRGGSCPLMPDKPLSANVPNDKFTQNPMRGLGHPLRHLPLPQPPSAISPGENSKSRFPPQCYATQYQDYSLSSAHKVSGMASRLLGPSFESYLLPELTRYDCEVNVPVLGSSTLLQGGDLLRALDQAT
Chain of HIF-1alpha (Homo sapiens) (Q16665 whole entry): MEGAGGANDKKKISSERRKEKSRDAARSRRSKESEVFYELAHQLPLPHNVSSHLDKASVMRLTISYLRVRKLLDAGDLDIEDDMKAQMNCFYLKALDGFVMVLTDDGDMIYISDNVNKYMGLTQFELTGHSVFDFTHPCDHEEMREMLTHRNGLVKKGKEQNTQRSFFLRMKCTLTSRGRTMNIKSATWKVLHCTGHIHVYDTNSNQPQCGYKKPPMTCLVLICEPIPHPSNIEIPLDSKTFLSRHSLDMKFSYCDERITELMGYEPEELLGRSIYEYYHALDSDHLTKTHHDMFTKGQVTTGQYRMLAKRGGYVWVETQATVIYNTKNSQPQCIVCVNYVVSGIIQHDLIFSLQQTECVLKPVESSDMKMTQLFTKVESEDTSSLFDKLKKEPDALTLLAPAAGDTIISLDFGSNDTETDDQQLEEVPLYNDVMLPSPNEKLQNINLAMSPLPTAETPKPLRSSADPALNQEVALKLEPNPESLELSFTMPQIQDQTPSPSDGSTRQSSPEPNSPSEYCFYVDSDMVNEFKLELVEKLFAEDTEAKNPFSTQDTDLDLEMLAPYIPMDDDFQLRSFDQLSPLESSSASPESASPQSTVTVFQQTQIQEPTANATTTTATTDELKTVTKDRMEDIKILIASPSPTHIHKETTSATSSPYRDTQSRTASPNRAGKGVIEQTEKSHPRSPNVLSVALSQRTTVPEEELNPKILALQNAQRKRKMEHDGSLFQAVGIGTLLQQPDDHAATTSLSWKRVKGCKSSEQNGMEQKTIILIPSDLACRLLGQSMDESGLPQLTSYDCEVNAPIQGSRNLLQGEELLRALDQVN

On to human EPAS1 protein, for which the luciferase activity of the pRE-Elb-LUC reporter in ARNT-deficient c4 hepatoma cells in data set [1] worked out at 12 fold.
On to “three copies of 50-nt EPO hypoxia-inducible enhancer in luciferase reporter”, for which the activity (fold induction) in data set [2] turned out to be 12; with EPAS1 (Homo sapiens) it was 12; in data set [3], 7.
